Assay: protease stability score; higher = more stable; yeast display proteolysis, trypsin and chymotrypsin;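 also: relative to predicted unfolded state with 0 unfolded-like and 1 meaning tenfold more protease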

Row | Sequence | protease stability score
1 | SEEEKEAEEFLRKHLHDRLTGDEDWVLRNIDPNARFDINGREIIGMEEWRQWLHEARVRVDDTQIDEKRSVGNKLDVRSTMHVTIEFDGVRVKHILDVELIMTKVDGKWKVKEVRVR | 1.61
2 | SEDEKLDRDLHDLFRKLWETGDFDSLLKLADPTARFIYDFENHSEEEHGMHVYLKRLTERLRFFKGLQIEVDVIHVVNGVSHFELTMHIDGVRIKVEIEVITIDGRVREMRVRDN | 0.738
3 | DELEHIERRYWHLFVRALETGDEERLDRLVDPHARLDWNGREIVGREHLRHYLSHMRIVIEHHHIKDVNIQGEKIDSDIHLVLTMHVGDKDLEIRTDARSIHLKIDGKWLIESHKIK | 0.966
4 | SEDERELKHWQTIALRLWKTGDFKSELENLDPHARLHINGVHIIGRERMKEFLERIKNLRVEHLHDEHVHIQGDKITLHGHMDVIINGQRTEVDYEFILLKVNGRWLDHSIEMR | 1.1
5 | DEEEHKSKLAVELWHKVEETGDENTMKRLADPNVRIDINGVELHGMEVLVRRLREMGADHFHVDLRRVTVVNGRVHVNTEVIIRQGDKVIILTTRLHIEKVDGRWKITTIEFE | 1.32
6 | DHEEKHMIKIARLILLLWFTGDEDTFSRLADPNVRVIIIWNGKEIHSHGMERFSEDRKRHEEEMRLKDFRIDEVRAVGDKIHMRVTIHLIQGDKEREIDLEIRIVLVNGKLKTIEFIFH | 2.63
7 | DHEEHLSHIALRESMEYLETGDPRKYTELMDPNVKLRVDINGKQIEFHGREEASRFMEHVQHEIKGARIETHSEDTQGNKIHMDLKLLINGKESKLIIIALKINGRWLVTSMEVHVK | 1.88
8 | SEAEESARKLTHDILRLFLTGDEDLISRYFDPNVRHHINGQEEHGMEKMVKMLNHMRFRDMHLRDVRIHIIDGVATAHVEGELHGEVNGVRRDIKSELIIITEKFNGRWRLSSISFIIE | 0.256
9 | DQDEEIMRRLLKTILESWVTGDEDELRRRADPDARSDINGRKHHGRDRVVKRMHDWLRELGIDHLHIEHERIIGEKAHFDTRVHVNGKTFEMFLHFEIIDGRVRSMHVEIR | 0.654
10 | SEDEDAFNELLKIHVEALHTGDWRSIRELLDPNARVRIDGKEYVGRESVEEHLRRIKNLTIHEIRIDDIRIQGDYVHVDGHVRGHFNGQEELHHVEFIMLKVNGRWRIKEIRIK | 2.26
11 | HDEERELTIVSERIIKIFETGDWEELHKMADPRVKVIVNGRETHGMERYVKHLEQIRTILTNIHLHDVDLQGDFLHIDLEARGRILVNGRDTTFNWELKITIDKFDGRWRMKRINVN | 2.16
12 | DERTEHFREYREKVLESIETGDPRVIKEMLDPNAKVEIVIGEKNFDLHGREEVMRWYEEWVEKYKGMRIHINHVEVQGEKIIVDSELEVNGKSHKTDLIITAFNGVIKETRVEIN | 1.06
13 | SEEEEWLRRYRHLFKHLWTTGDWRTLEELLDPRTRIDIDVGDKRYHIHGREDAVEFFHRERRELGIDHIEDKRTRVIDGQVEIHGKIHVDGRDETRTIHVIVVNGRMKYLYFHVE | 0.5
14 | HEDEKWMKHMLEMLIRSILTGDEETLHKLADPHVRLEINGQEYWGREQFTHAITQFIRHIRIDSIHVHDYHIQGEKVDFDMRSKFTINGQVDTSRLRVFILKVDGRWVVEEVIIR | 2.27
15 | HEMKEESEKAVRLMVHLFKTGDEETIYRMADPNARFFFDGRHIHGMDHVFREVLRLEREYGVKHFELRDMELRIFDGRIFLHIDGVEEFNGRRLETHLHFESRKIDGRWHFQSESIVLR | 0.317
16 | SLEEHAFRLALHLLENMWLTGDEELFERLLDPHARLEFENHKYHGRDIVSEFMRRIKNLTFHRIIFRNRDVQGEKVSFIMETDVEWNGKRHIEHTHITVHKINGVWLIHEVDIR | 1.42
17 | SEEEKEVQEYLERSIKDIRTGDEDELRRQLDPNYKLDVNGQKHIGMELWLKILSREVKEIRIDHVERHIEVINGRIDVKGELILNFNGREFRHHFEIHATKFNGRWVVDSMRVE | 1.15
18 | DEWREHMEKLADDFSHAMLTGNEESMDKFLDPHTRSIVNGVERHGREAFRIWINQIDHIRDVEFRHVDTQGNKIRSHTRFHGEVNGRRYIVEIEVILHVIDGRVKSVEIRNL | 1.38
19 | DEEKEEHEKMIERWLRALETGDEHLLRELIDPNVRLDINGRRTHGREDVLRLFVDLGIDHHDIHDVKIIDGRIDMDTRINVNGREIKIRVIARKFDGRWIVESFRVE | 1.89
20 | DEDDEFERLFWKKWVDALRTGNEEIIRKMVDPNVKIVFNGKELHGREAVDIVLKRIDHIDDIKLRHSRVVDGRVEITTKIHMKVGDKSIDSETHMSFEKIDGRWIITEMFFV | 2.59
21 | SEDEEELERELRLWLSLVLTGDEDIIRELADPHARSRVNGQKSHGRENLLQLFREHMEIMGAKVVDIEEYHIQGEKIILIMRVHVGDKEYELRIEIHVFNGRLKEVNLHFK | 1.52
22 | DEDEEDAQEILKRFVHANETGDWRILEELIDPNARYEQGDKHLVGREEVLRRMIELGIKHTYIHSFSVQGDKLRLDTSIQFENHRVKTHLILNKINGRWVIKSIHIH | 1.91
23 | DEEDEILERLFKLWIEEFLTGDWEAFHRYFDPRTRIHIGDKHHHGRTEYEKVAKHLNKRIDHVIIIIRRMEHQGDYIKVDTESRHKIDGVDISTHYILHHRIVDGKIHEIDVIYL | 0.647
24 | SDEDEDARRVMELLLELFETGNWRELSKLADPHVRMEIDGQDFHGRELFEHFVRELIEKFKGAKLELRVHTLDLINGVMYSDIHIHLNVNGRKLDIRSHFRILKIDGRWLTRSFHFK | 1.25
25 | DDIHRIIKTALELWLRVLETGDERLIHELLDPDARFVINGKFYHGREVWEEERRQIDHIRMDTFHLKHIDLVNGRLRIEGHIVFTVHVNGRTTRREEDVHFILTKFNGKWEMQSLNIE | 1.15

Row | Sequence | protease stability score
26 | DEDTEKLKKSLEVIWRLLHTGDENSLEHLMDPNARLDINGVTQVGRTASKIIIDRFDHIRHIHINDVRFIDGRAHVHGKTDGIQGDKRYEVSMEIILLKINGRWIIHQFYTE | 1.38
27 | SDLEEEALNLAREWMHNWVTGNEEREEELLDPNVRSDINGRHFHGRERISRMIRYLLDEIRVHDVKEHDMEIQGEKVRIDGRIDGEVNGKRKILVMHFHIVVIDGVIHSVEVRIE | 1.18
28 | DEDTEKVERIAKEVINLHETGDWENWSKQADPHTRVELNVDGQHFEYIGREKFREALEWLGIKHSHFHHIEIIGDKLHVDGYSFFNGRRTRVELRFVIVNGRIKHQIIIIK | 0.848
29 | SEDESAARHVIERMSHNLMTGDEEDLSDQFDPHVRVDINGVEIIGREELLRWLREWLRHAGVSKFNVHIIPREIRLIGDFMEINGELRMNYNGKEERTETRIIVFKFNGKWSIERMRIH | 1.72
30 | REEEEEIRFAEEFWMELEKTGDEHKILRMADPNVRVRIGDKHHHGREHLRRVIEWRLEYAGIDKIEVRLRRVTIINGRVHIDGELIVGDKEHRVEIILVKINGRWILHEFEIR | 1.5
31 | SEEEKNARDFLRLIFNHVHTGDFRHMSKLFDPHVRIQIGDKVFHGREEAERVWLEWRVEDIKIRHIDIQGDKLIVDTEVHGNFNGRNRNIETEIHVRKVDGKWILESMSVI | 2.54
32 | DEDHKFAVEILRRLMEIWFTGNEEELKHLADPDYRLRVRINGKEITRHGMEQSREQIKRWIDRIDHYEIRIRHLEWQGDKSHSHTELHMRFDGVIKKFETRIIVIVIDGKVSEIIIEIN | 1.61
33 | DEDQKEAEDMAELITKLINTGDEEHWLDRADPHMKVDIDGVESVGREEIERLLHELIRKWGVSKIESRNKHVTIINGRVHFRINIHVNGQEYLLILINDKVDGRWRVQETRVHIT | 1.63
34 | DDIKEESRHAHEEMLKIIKTGNEEVFEEMADPDVRIILDINGRDVRSHGREEAVRFWHEFMERVKGLRIHTDDLIVVGDKIELRIHSRYNGVRTHIRMIVSKFDGVWLLTELEIRVV | 1.75
35 | DEEEELSKIAYHLTEHIWETGDEDLLKELLDPNTQVTQGEWHVHGRESMHRFLRHVRERLGVDQIDVDVKSVRAFNGVVTTHVNLHFNGRTYTMTLFSNKYNGKWTVKSMKIQ | 1.29
36 | TEEHEVALRFWRMFLEAITTGDEKRIKELLDPHVQIEINGKHLHGMETLIHRINEIRETWKHVEIKTVEFYNGQIHSHFRVHYVFHVNGKEIERDTDVLLILTKVDGRWHIKSIHIH | 2.52
37 | DEEEETEKKWADIFTKAWITGDEETLERLMDPNVKYHQEVGDKHWSAHGREEVSRHIHELLKHLGVKVVELRRIHVINGVVHVDGKTIVNGREFTVHIHYRIVDGRVREIRFEFR | 2.22
38 | SEHEERMRRYIEIFIHNLITGDEHMINRMADPSTIVIINGVRLWGREEFSKWVRRERERIDHIEMRIEHLDVQGDKATVDVRVEEHVGDKSEERSLIIRLIVVNGRSHSMHFEVR | 1.59
39 | SEEEEHIREHSERFIEAWKTGDWEELSRMIDPHARIVVNGKEVHGRSDIERMLRETMEKMGANHIQEESVHYQGNKIILHETVNVGDKRLRLTIVIHVVNGKVRRVEFHIEQR | 2.17
40 | DERREIMEEWARDVIEWLETGDFEAIERNLDPNVRHDFNGKEFHGREQVIKSFHDILKRIKNIRIETRHIEVVDGVTHWDGDVNVNGVRTHVDINIEVINGVFHDFYIKFK | 1.19
41 | SEEEHFAKELHKLFLEWWKTGDEEHLLEFADPDARSEIGDKRHHGREEVSRELLEFRRRIPGVQIRHQHVSVHLIDGKLTTHLHFRVNFNGVEFHETIIYYNDKYNGKWHLKSIIVTIE | 0.954
42 | HEDEEHALKLTMDFLRWIYTGDEDTLNKYADPNVRLDIGDKVFHGMEFINKHMKELRFHRIHVKRFEAHVVDGKLRSHMDVRIDGNVDGRRRETDVELIFFWEKIDGRWVNTSIIIHHH | 1.27
43 | TEDEEAFKENIRILLELTKTGDFKEMSKLLDPHVRIIINGKLFVGMEHADRLVRERNEEWRIESLEVEHLQSVDGQIHADTKMHVNINGVHRIHDTHQIVLKVNGRWFMEQIEIR | 1.01
44 | SDEHERLKRFAEEWIRAVITGDFDRLYELMDPHARYHQGDKNHHGRDQIRHFLHRFKNIRIDYHRIELIGDKVHMDGWINYDGKEVETKITVHVIDGRVHIIHVWEI | 1.39
45 | SEDDELAHLFFELFLKLIQTGDEDKLLDLMDPNAKSEYNGVILHGREHKEHWRRRFKNIRVHYRHVEIHFQGNYLHIRIDGSLDINGQEIDSHVRLHTEKVNGKWIVRSMHFHYT | 1.25
46 | DEDEKNLEKVAHDFIRATETGNEKILHELLDPNTREEINGVDLHGRETIAKFFLDIRRNLGIKVRMRLRDWKIYNGVVELDTEVIIDVGDKRIEHKVVIYVVKYNGRWLIDKIEWI | 1.81
47 | DEEHRHAHWLLNVLTKAMITGDESLMEHLLDPNARLIQGEFELVGRERIIDWFHHIRTHEVRIHVEHFDVVNGKAIIFGHVTVDGTVNGQRREFRFDQTYFSSKIDGKWVIESLEME | 1.3
48 | EEEEENAKQFFHIWERSMRTGDEKTLHELADPHVRAVIGDKHHIGREEFHEVIRQTMEHIRVDDMILHTIMVYDGKVEILGRLVVRVGDKTHEVHVKIQVEKINGRWLLTELHIK | 0.074
49 | RESDEEREEFYKLLMHAYETGDERILNELMDPNVQIHQGEWHLHGRKDLRRRFKHLRIDHVDHITRDMRVVGDKIEVHGHIIVEGTVDGVRDTKSFDVHILTEKIDGQWFIKSVHIR | 0.903
50 | TEMNDEARRAMKDFIEHLRTGDEDRLDKMLDPHVRMEINGRTFHGREDAIKWHREIRLEDITVKFSTIQGDKVRFFGEEDGIIDGQRHKTEVELIIRKVNGRWFIHEIQVH | 1.27

— the NTF2 design screens of Basanta et al. (2020)
